These results are taken from IntAct's records for PubMed 29892012.

The labels stand for the following.
B1: E3 ubiquitin-protein ligase DZIP3 (Homo sapiens), Q86Y13 (parent)
chain: MDSLPDEFFVRHPAVEDQRKEETENKLEKSSGQLNKQENDIPTDLVPVNLLLEVKKLLNAINTLPKGVVPHIKKFLQEDFSFQTMQREVAANSQNGEEIVPALTLRFLITQLEAALRNIQAGNYTAHQINIGYYLTLLFLYGVALTERGKKEDYTEAENKFLVMKMMIQENEICENFMSLVYFGRGLLRCAQKRYNGGLLEFHKSLQEIGDKNDHWFDIDPTEDEDLPTTFKDLLNNFIKTTESNIMKQTICSYLDCERSCEADILKNTSYKGFFQLMCSKSCCVYFHKICWKKFKNLKYPGENDQSFSGKKCLKEGCTGDMVRMLQCDVPGIVKILFEVVRKDEYITIENLGASYRKLISLKITDTDIRPKISLKFNTKDEMPIFKLDYNYFYHLLHIIIISGTDIVRQIFDEAMPPPLLKKELLIHKNVLESYYNHLWTNHPLGGSWHLLYPPNKELPQSKQFDLCLLLALIKHLNVFPAPKKGWNMEPPSSDISKSADILRLCKYRDILLSEILMNGLTESQFNSIWKKVSDILLRLGMMQEDIDKVKENPIENISLDYHQLSVYLGIPVPEIIQRMLSCYQQGIALQSITGSQRIEIEELQNEEEELSPPLMEYNINVKSHPEIQFAEINKDGTSIPSESSTESLKDLQEVKSKQRKKKKTKNKKNKDSKEDQVPYVVEKEEQLRKEQANPHSVSRLIKDDASDVQEDSAMEDKFYSLDELHILDMIEQGSAGKVTTDYGETEKERLARQRQLYKLHYQCEDFKRQLRTVTFRWQENQMQIKKKDKIIASLNQQVAFGINKVSKLQRQIHAKDNEIKNLKEQLSMKRSQWEMEKHNLESTMKTYVSKLNAETSRALTAEVYFLQCRRDFGLLHLEQTEKECLNQLARVTHMAASNLESLQLKAAVDSWNAIVADVRNKIAFLRTQYNEQINKVKQGFALSTLPPVQLPPPPPSPEILMQQFLGRPLVKESFFRPILTVPQMPAVCPGVVSATGQPRAPLMTGIAWALPAPVGDAVPPSAGLRSDPSIMNWERITDRLKTAFPQQTRKELTDFLRKLKDAYGKSLSELTFDEIVCKISQFIDPKKSQSQGKSVSNVNCVSPSHSPSQPDAAQPPKPAWRPLTSQGPATWEGASNPDEEEEEEEPCVICHENLSPENLSVLPCAHKFHAQCIRPWLMQQGTCPTCRLHVLLPEEFPGHPSRQLPKI
B2: E3 ubiquitin-protein ligase TRIM17 (Homo sapiens), Q9Y577 (parent)
chain: MEAVELARKLQEEATCSICLDYFTDPVMTTCGHNFCRACIQLSWEKARGKKGRRKRKGSFPCPECREMSPQRNLLPNRLLTKVAEMAQQHPGLQKQDLCQEHHEPLKLFCQKDQSPICVVCRESREHRLHRVLPAEEAVQGYKLKLEEDMEYLREQITRTGNLQAREEQSLAEWQGKVKERRERIVLEFEKMNLYLVEEEQRLLQALETEEEETASRLRESVACLDRQGHSLELLLLQLEERSTQGPLQMLQDMKEPLSRKNNVSVQCPEVAPPTRPRTVCRVPGQIEVLRGFLEDVVPDATSAYPYLLLYESRQRRYLGSSPEGSGFCSKDRFVAYPCAVGQTAFSSGRHYWEVGMNITGDALWALGVCRDNVSRKDRVPKCPENGFWVVQLSKGTKYLSTFSALTPVMLMEPPSHMGIFLDFEAGEVSFYSVSDGSHLHTYSQATFPGPLQPFFCLGAPKSGQMVISTVTMWVKG
partner: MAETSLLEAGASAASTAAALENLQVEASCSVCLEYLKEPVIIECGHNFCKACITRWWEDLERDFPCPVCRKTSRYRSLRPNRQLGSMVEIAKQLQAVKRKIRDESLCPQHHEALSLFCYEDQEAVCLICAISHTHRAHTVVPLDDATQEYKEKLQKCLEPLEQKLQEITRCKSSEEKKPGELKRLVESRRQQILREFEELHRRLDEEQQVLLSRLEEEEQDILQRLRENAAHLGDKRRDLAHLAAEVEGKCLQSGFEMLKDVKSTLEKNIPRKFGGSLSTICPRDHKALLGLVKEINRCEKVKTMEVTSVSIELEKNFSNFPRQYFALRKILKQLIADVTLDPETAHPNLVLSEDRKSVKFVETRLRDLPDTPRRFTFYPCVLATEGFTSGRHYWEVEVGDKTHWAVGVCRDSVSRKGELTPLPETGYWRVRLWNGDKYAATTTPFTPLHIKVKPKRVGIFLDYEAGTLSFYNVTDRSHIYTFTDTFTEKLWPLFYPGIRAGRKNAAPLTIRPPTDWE
B3: U3 small nucleolar RNA-associated protein 25 homolog (Homo sapiens), Q68CQ4 (parent)
chain: MGKRGSRSQSQLLNTLTKKQKKHLRDFGEEHPFYDRVSRKEAKPQICQLSESSDSSDSESDSESEPQQVSGYHRLLATLKNVSEEEEEDEEEEEEEDSIVDDAEMNDEDGGSDVSVEEEMAAESTESPENVALSADPEGKEDGEEPPGTSQTSPEEFTDAKHESLFSLETNFLEEESGDNSSLKASQDPFLQHVNKELKEKAIQAVATNPKTTHELKWPILGQLFFSSKFQKLETFKPPKDIDLKSLHLQKPLESTWTKTNSQFLSGPQKSSSPFTPLQKELFLIMNSYRDLFYPERTALKNGEEIRHVYCLHVINHILKANAQVLGNNSRRRSQKFGVGDDDDFRDQGLTRPKVLIVVPFREAALRVVQLFISLLEGDSKKKIIVSNKKRFQGEYGSDPEERPPNLKRPEDYEAVFVGNIDDHFRIGVAILQRSIRLYAPFYSSDILIASPLGLRTIIGGEGEKKRDFDFLSSIELLIIDQADIYLMQNWEHVLHLMNHMNLLPLDSHGVDFSRVRMWSLNNWSKYYRQTLLFGALQDAQINSVFNKYCVNMQGQVAVRNVPMTGSISHVLVQLPHVFQRMEAENLASVIDARFNFFVNKILPQYRDAVMSHTLIYIPSYFDFVRLRNYFKKEELNFTHICEYTQKSGVSRARHFFLQGEKQFLLFTERFHFYKRYTIKGIRNLIFYELPTYPHFYSEICNMLRATNRGEEATWTCTVLYSKYDAQRLAAVVGVERAAQMLQSNKNVHLFITGEK
partner: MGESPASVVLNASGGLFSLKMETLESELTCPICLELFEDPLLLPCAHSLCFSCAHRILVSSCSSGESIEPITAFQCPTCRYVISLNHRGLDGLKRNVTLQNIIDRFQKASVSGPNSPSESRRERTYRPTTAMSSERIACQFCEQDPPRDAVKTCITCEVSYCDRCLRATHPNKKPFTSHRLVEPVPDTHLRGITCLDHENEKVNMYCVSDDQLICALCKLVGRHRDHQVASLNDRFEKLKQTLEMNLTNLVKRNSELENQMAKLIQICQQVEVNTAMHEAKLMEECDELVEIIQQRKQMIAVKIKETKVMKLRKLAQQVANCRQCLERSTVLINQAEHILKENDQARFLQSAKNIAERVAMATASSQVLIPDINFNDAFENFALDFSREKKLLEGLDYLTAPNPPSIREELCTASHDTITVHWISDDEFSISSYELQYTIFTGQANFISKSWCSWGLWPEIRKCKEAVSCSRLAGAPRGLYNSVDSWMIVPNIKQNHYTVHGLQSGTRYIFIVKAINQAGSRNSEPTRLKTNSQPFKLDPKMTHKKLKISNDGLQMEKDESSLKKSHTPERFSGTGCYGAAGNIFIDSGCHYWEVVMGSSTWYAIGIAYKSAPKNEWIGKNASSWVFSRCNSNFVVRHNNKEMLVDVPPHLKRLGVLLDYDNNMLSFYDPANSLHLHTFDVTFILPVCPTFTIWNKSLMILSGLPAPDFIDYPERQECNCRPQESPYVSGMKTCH
B4: Glucosamine-6-phosphate deaminase 2 (Homo sapiens), Q8TDQ7 (parent)
chain: MRLVILDNYDLASEWAAKYICNRIIQFKPGQDRYFTLGLPTGSTPLGCYKKLIEYHKNGHLSFKYVKTFNMDEYVGLPRNHPESYHSYMWNNFFKHIDIDPNNAHILDGNAADLQAECDAFENKIKEAGGIDLFVGGIGPDGHIAFNEPGSSLVSRTRLKTLAMDTILANAKYFDGDLSKVPTMALTVGVGTVMDAREVMILITGAHKAFALYKAIEEGVNHMWTVSAFQQHPRTIFVCDEDATLELRVKTVKYFKGLMHVHNKLVDPLFSMKDGN
partner: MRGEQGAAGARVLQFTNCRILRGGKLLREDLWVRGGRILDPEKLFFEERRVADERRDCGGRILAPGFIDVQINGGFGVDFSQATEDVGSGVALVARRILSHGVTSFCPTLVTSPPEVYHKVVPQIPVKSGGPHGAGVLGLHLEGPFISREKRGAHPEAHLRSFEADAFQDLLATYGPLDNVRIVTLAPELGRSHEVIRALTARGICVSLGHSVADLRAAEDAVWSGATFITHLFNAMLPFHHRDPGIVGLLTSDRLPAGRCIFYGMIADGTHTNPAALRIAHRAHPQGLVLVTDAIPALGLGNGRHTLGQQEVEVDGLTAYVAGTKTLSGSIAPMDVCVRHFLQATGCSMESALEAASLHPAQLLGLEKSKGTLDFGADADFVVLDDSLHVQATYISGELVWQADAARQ
B5: U3 small nucleolar RNA-associated protein 25 homolog (Homo sapiens), Q68CQ4 (parent)
chain: B3 chain
B6: Retinoic acid receptor alpha (Homo sapiens), P10276 (parent)
chain: MASNSSSCPTPGGGHLNGYPVPPYAFFFPPMLGGLSPPGALTTLQHQLPVSGYSTPSPATIETQSSSSEEIVPSPPSPPPLPRIYKPCFVCQDKSSGYHYGVSACEGCKGFFRRSIQKNMVYTCHRDKNCIINKVTRNRCQYCRLQKCFEVGMSKESVRNDRNKKKKEVPKPECSESYTLTPEVGELIEKVRKAHQETFPALCQLGKYTTNNSSEQRVSLDIDLWDKFSELSTKCIIKTVEFAKQLPGFTTLTIADQITLLKAACLDILILRICTRYTPEQDTMTFSDGLTLNRTQMHNAGFGPLTDLVFAFANQLLPLEMDDAETGLLSAICLICGDRQDLEQPDRVDMLQEPLLEALKVYVRKRRPSRPHMFPKMLMKITDLRSISAKGAERVITLKMEIPGSMPPLIQEMLENSEGLDTLSGQPGGGGRDGGGLAPPPGSCSPSLSPSSNRSSPATHSP
partner: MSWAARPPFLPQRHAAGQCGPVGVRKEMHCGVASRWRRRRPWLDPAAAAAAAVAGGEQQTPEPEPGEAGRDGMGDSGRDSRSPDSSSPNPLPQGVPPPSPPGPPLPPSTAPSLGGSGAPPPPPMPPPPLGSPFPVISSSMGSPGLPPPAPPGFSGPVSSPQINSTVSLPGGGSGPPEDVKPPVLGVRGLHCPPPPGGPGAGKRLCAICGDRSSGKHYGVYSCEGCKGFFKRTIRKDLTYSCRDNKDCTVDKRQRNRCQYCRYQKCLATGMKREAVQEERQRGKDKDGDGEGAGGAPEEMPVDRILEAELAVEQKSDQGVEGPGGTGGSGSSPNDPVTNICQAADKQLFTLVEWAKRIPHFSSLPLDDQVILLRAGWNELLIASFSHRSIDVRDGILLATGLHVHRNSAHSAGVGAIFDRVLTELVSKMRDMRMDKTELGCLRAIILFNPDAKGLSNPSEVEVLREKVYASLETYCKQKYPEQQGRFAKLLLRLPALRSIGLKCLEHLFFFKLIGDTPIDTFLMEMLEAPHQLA
B7: Pre-B-cell leukemia transcription factor-interacting protein 1 (Homo sapiens), Q96AQ6 (parent)
chain: MASCPDSDNSWVLAGSESLPVETLGPASRMDPESERALQAPHSPSKTDGKELAGTMDGEGTLFQTESPQSGSILTEETEVKGTLEGDVCGVEPPGPGDTVVQGDLQETTVVTGLGPDTQDLEGQSPPQSLPSTPKAAWIREEGRCSSSDDDTDVDMEGLRRRRGREAGPPQPMVPLAVENQAGGEGAGGELGISLNMCLLGALVLLGLGVLLFSGGLSESETGPMEEVERQVLPDPEVLEAVGDRQDGLREQLQAPVPPDSVPSLQNMGLLLDKLAKENQDIRLLQAQLQAQKEELQSLMHQPKGLEEENAQLRGALQQGEAFQRALESELQQLRARLQGLEADCVRGPDGVCLSGGRGPQGDKAIREQGPREQEPELSFLKQKEQLEAEAQALRQELERQRRLLGSVQQDLERSLQDASRGDPAHAGLAELGHRLAQKLQGLENWGQDPGVSANASKAWHQKSHFQNSREWSGKEKWWDGQRDRKAEHWKHKKEESGRERKKNWGGQEDREPAGRWKEGRPRVEESGSKKEGKRQGPKEPPRKSGSFHSSGEKQKQPRWREGTKDSHDPLPSWAELLRPKYRAPQGCSGVDECARQEGLTFFGTELAPVRQQELASLLRTYLARLPWAGQLTKELPLSPAFFGEDGIFRHDRLRFRDFVDALEDSLEEVAVQQTGDDDEVDDFEDFIFSHFFGDKALKKRSGKKDKHSQSPRAAGPREGHSHSHHHHHRG

The variants in one assay derive from B1. To be noted: with ub2e2_human UBE2E2, Q96LR5.
ub2e2_human UBE2E2, Q96LR5, sequence (Q96LR5 whole entry): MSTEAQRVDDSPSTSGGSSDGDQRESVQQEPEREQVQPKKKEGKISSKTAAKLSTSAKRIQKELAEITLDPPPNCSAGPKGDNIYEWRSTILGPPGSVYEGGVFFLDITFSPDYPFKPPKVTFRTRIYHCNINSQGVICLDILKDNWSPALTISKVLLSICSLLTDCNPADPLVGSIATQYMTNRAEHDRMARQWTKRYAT
Regarding M1032R, the “effect of a mutation on the interaction” value is listed as “disrupting interaction strength”.

The next assay covers variants of B1. To be noted: with znf24_human ZNF24, P17028.
znf24_human ZNF24, P17028, sequence (P17028 whole entry): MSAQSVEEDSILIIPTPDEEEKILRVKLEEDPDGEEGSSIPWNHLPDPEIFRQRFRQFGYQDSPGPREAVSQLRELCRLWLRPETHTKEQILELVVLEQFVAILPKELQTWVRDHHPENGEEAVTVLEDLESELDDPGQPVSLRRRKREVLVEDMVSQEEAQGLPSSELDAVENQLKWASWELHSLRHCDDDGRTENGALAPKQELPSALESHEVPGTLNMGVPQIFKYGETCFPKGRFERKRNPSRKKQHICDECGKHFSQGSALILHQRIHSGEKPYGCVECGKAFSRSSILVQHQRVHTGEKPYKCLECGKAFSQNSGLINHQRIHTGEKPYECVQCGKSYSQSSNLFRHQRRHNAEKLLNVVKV
Consider M1032R, for which the “effect of a mutation on the interaction” value was “disrupting interaction strength”.

The variants in another assay derive from B1. The conditions noted are these: with hnrl1_human HNRNPUL1, Q9BUJ2.
hnrl1_human HNRNPUL1, Q9BUJ2, sequence (Q9BUJ2 whole entry): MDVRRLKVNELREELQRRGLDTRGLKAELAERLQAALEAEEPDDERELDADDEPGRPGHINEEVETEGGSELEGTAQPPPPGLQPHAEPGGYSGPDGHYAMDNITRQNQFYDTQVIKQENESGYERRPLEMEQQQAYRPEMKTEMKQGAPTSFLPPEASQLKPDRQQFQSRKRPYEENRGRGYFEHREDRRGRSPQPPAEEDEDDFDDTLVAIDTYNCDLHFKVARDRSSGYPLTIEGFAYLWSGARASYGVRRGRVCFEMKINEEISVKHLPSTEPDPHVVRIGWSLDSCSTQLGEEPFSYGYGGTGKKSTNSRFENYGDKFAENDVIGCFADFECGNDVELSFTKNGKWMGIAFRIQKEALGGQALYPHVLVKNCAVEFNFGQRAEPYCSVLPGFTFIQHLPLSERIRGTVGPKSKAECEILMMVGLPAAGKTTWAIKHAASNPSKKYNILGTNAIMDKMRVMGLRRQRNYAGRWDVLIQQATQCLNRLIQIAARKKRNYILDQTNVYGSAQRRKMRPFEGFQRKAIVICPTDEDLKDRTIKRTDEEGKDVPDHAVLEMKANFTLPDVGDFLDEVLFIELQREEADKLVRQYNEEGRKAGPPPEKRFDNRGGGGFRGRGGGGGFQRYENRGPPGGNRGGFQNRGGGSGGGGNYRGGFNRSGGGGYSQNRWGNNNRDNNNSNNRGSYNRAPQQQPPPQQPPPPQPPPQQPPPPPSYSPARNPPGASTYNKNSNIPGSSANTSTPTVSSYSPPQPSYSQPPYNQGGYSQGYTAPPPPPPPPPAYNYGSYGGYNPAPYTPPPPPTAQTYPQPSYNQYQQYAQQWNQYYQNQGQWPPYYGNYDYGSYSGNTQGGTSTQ
Consider M1032R, for which the “effect of a mutation on the interaction” value is given as “with no effect”.

In a further assay the parent is B1. The conditions noted are these: with zch10_human ZCCHC10, Q8TBK6.
zch10_human ZCCHC10, Q8TBK6, sequence (Q8TBK6 whole entry): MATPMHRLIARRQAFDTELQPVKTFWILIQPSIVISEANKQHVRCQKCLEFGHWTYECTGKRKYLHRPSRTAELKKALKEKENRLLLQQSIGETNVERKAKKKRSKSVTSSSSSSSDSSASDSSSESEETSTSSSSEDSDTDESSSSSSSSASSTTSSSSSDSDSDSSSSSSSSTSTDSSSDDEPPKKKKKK
For the variant M1032R, the “effect of a mutation on the interaction” value is “disrupting interaction strength”.

The next assay covers variants of B2. To be noted: with tri39_human TRIM39, Q9HCM9.
As to R159T, the “effect of a mutation on the interaction” value is recorded as “with no effect”.

The variants in the next assay derive from B3. The conditions noted are these: with trim1_human MID2, Q9UJV3.
With D399E, the “effect of a mutation on the interaction” value is recorded as “with no effect”.

The next assay covers variants of B4. To be noted: with naga_human AMDHD2, Q9Y303.
As to I216V, the “effect of a mutation on the interaction” value was “with no effect”.

Variants of B5 are the subject of another assay. The conditions noted are these: with rufy1_human RUFY1, Q96T51.
rufy1_human RUFY1, Q96T51, sequence (Q96T51 whole entry): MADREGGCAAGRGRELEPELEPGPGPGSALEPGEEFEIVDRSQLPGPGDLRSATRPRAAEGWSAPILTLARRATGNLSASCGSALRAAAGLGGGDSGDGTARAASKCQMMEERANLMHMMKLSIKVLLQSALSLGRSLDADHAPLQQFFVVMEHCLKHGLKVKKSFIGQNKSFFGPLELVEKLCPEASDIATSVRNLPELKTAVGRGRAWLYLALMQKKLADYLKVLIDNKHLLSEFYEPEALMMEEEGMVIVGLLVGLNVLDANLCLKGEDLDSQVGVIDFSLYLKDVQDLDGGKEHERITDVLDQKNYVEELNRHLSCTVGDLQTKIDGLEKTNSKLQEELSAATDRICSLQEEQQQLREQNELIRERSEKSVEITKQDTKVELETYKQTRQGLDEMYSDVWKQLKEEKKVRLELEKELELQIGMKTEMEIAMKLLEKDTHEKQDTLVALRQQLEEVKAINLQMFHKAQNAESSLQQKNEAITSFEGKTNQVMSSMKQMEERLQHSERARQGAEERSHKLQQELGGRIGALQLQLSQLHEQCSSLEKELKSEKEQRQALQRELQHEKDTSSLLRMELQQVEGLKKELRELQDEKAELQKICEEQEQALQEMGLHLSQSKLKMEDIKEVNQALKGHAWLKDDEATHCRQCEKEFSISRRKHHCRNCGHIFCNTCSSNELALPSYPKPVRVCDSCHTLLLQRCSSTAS
As for D399E, the “effect of a mutation on the interaction” value was “with no effect”.

Variants of B6 are the subject of the next assay. The conditions noted are these: with rxrb_human RXRB.
Turning to P375L, the “effect of a mutation on the interaction” value is recorded as “disrupting interaction strength”.

Turning to R83H, the “effect of a mutation on the interaction” value was “with no effect”.

In another assay the parent is B7. The conditions noted are these: with mdfi_human MDFI.
Regarding V238M, the “effect of a mutation on the interaction” value was “with no effect”.
